Assay results reported in patent publication US20060241048A1.

Legend:
[1] = target: bovine serum albumin (BSA) (bovine) (UniProt P02769); experiment: cell-based or functional assay
[2] = target: C5b-8 and C5b-9 complexes (human); experiment: cell-based or functional assay

Chain of UniProt P02769 (P02769 25-607 limits assumed): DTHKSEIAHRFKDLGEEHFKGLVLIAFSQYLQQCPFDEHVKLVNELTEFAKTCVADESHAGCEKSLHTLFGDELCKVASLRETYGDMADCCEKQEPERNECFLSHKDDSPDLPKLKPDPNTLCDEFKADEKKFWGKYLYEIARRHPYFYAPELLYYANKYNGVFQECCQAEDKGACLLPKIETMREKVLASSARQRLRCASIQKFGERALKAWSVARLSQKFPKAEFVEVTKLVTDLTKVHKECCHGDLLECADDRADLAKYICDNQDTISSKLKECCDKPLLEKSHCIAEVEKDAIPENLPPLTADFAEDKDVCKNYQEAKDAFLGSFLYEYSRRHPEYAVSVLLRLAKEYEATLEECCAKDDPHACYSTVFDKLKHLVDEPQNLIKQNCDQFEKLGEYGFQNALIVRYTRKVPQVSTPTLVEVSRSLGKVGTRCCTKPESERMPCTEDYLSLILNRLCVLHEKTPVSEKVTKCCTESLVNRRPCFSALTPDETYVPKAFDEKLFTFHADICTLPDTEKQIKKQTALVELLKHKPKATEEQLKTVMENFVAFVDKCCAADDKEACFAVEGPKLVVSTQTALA

Row | IH50 (nM), reactive lysis of guinea pig erythrocytes, Absence of HSA [2] | IH50 (nM), reactive lysis of guinea pig erythrocytes, Presence of HSA (2.7 mg/ml) [2] | Molecule | IH50 of inhibition of haemolysis, 4 mg/ml BSA [No BSA: 0.26 at the 13th table, row 8, column 3] [1] | IH50 of inhibition of haemolysis, 40 mg/ml BSA [No BSA: 0.26 at the 13th table, row 8, column 3] [1] | IH50 (nM) of inhibition of haemolysis, Presence of Albumin (40 mg/ml) [absence of albumin: 0.26 at the 11th table, row 9, column 3] [1]
1 | 600 nM | 400 nM | Recombinant human CD59 (lacking the GPI anchor), with an amino-terminal methionine and a carboxy-terminal cysteine (APT2439) (protein) MLQCYNCPNPTADCKTAVNCSSDFDACLITKAGLQVYNKCWKFEHCNFNDVTTRLRENELTYYCCKKDLCNFNEQLENC |  |  | 
2 | 0.1 nM | 0.08 nM | APT3280, conjugate of APT2439 and APT3146 via a disulphide (protein, human, bisMyr at the N-terminal Lys; Cys (thiopyridylated before conjugation) disulphide-linked to CD59; carboxy-terminal Cys disulphide-linked to APT3146) MLQCYNCPNPTADCKTAVNCSSDFDACLITKAGLQVYNKCWKFEHCNFNDVTTRLRENELTYYCCKKDLCNFNEQLENC peptide: KSSKSPSKKDDKKPGDC |  |  | 

The next lines start with the molecule.

Row | Molecule | IH50 (nM), reactive lysis of guinea pig erythrocytes, Absence of HSA [2] | IH50 (nM), reactive lysis of guinea pig erythrocytes, Presence of HSA (2.7 mg/ml) [2] | IH50 of inhibition of haemolysis, 4 mg/ml BSA [No BSA: 0.26 at the 13th table, row 8, column 3] [1] | IH50 of inhibition of haemolysis, 40 mg/ml BSA [No BSA: 0.26 at the 13th table, row 8, column 3] [1] | IH50 (nM) of inhibition of haemolysis, Presence of Albumin (40 mg/ml) [absence of albumin: 0.26 at the 11th table, row 9, column 3] [1]
3 | APT070, [SCR1-3]-Cys-S-S-[MSWP-1] (from UniProt P17927 42-237) (other; unit assumed) |  |  | 1.3 nM | 10 nM | 
4 | APT070, [SCR1-3]-Cys-S-S-[MSWP-1] (from UniProt P17927 42-237) |  |  |  |  | 10 nM
5 | APT3073, conjugate of APT2439 and APT2258 via a disulphide (protein, human, N-terminal myristoyl (Myr-); C-terminal amide (-NH2); Cys (2-SPy before conjugation) disulphide-linked to CD59; carboxy-terminal Cys disulphide-linked to APT2258) MLQCYNCPNPTADCKTAVNCSSDFDACLITKAGLQVYNKCWKFEHCNFNDVTTRLRENELTYYCCKKDLCNFNEQLENC peptide: GSSKSPSKKDDKKPGDC | 0.8 nM | 6 nM |  |  | 
